Measured values published in the RNAGym collection of RNA variant scans (doi:10.7554/elife.90254).

B1: LINE1-full (parent)
chain: UACGUAGGUGGUUUUCCCCUGAUAGUGCUAAGGGGGCCUGGAAGUUUGGACUGGGCAGAGCUCAACACAGCGUGGCAAAGUGGCUGUGGCUAGACUGCCUCUCUGGAUUCCUCGUCACUCAGCAGGGCAUCUCUGAGAGAAAUGCC

Variants of: B1
Assay: self-cleavage, relative activity (ratio to wild type); higher = more cleavage; in vitro, sequencing; the parent is a self-cleaving ribozyme

Q: For A2G U29C, which self-cleavage is on record?
A: 0.81

Q: Which self-cleavage does the source give for A2G A94C here?
A: 0.29

Q: Which self-cleavage does the source give for U1A A43G here?
A: 0.81

Q: With U1A A31U as the variant, how does the self-cleavage read?
A: 1.11

Q: For U1C G48A, which self-cleavage is on record?
A: 0.9

Q: With A2G U102C as the variant, how does the self-cleavage read?
A: 1.2

Q: For U1A A92U, which self-cleavage is on record?
A: 0.32

Q: With C3G A50U as the variant, how does the self-cleavage read?
A: 0.16

Q: Which self-cleavage does the source give for U1C U15A here?
A: 0.81

Q: For U1G G114C, which self-cleavage is on record?
A: 0.52

Q: With C3U G72A as the variant, how does the self-cleavage read?
A: 0.05

Q: Which self-cleavage does the source give for A2G U47C here?
A: 0.84

Q: For U1A U12C, which self-cleavage is on record?
A: 1.4

Q: With A2G A141G as the variant, how does the self-cleavage read?
A: 0.78

Q: For C3U U14A, which self-cleavage is on record?
A: 0.24

Q: Which self-cleavage does the source give for A2U A141G here?
A: 1

Q: For A2G U130C, which self-cleavage is on record?
A: 0.56

Q: Which self-cleavage does the source give for A2G G93A here?
A: 0.1

Q: Which self-cleavage does the source give for C3A A64G here?
A: 0

Q: For C3A A30G, which self-cleavage is on record?
A: 1.39

Q: With U1A U112A as the variant, how does the self-cleavage read?
A: 1.2

Q: With C3U A59U as the variant, how does the self-cleavage read?
A: 0.56

Q: For U1C A124U, which self-cleavage is on record?
A: 1.07

Q: Which self-cleavage does the source give for U1A U26G here?
A: 1.19

Q: With U1C A117G as the variant, how does the self-cleavage read?
A: 0.73

Q: With U1C A117U as the variant, how does the self-cleavage read?
A: 0.89

Q: For A2U A67G, which self-cleavage is on record?
A: 0.61

Q: With U1C U115A as the variant, how does the self-cleavage read?
A: 0.98

Q: With A2U U130C as the variant, how does the self-cleavage read?
A: 0.32

Q: With C3U A124U as the variant, how does the self-cleavage read?
A: 1

Q: For U1A A59U, which self-cleavage is on record?
A: 0.91

Q: With A2U U81A as the variant, how does the self-cleavage read?
A: 1.38

Q: For A2G A42G, which self-cleavage is on record?
A: 0.72

Q: Which self-cleavage does the source give for A2G A42U here?
A: 0.69

Q: With A2U A64U as the variant, how does the self-cleavage read?
A: 0.37

Q: Which self-cleavage does the source give for C3A U9C here?
A: 1.11

Q: With U1C C63U as the variant, how does the self-cleavage read?
A: 0.24

Q: With A2G A77G as the variant, how does the self-cleavage read?
A: 1.36

Q: Which self-cleavage does the source give for U1A A124G here?
A: 1.16

Q: For C3A A138G, which self-cleavage is on record?
A: 0.92

Q: With C3A A69G as the variant, how does the self-cleavage read?
A: 0.31

Q: With U1G U96C as the variant, how does the self-cleavage read?
A: 0.87

Q: With A2G U134A as the variant, how does the self-cleavage read?
A: 1.38

Q: Which self-cleavage does the source give for A2G U143A here?
A: 0.99

Q: With A2G U143C as the variant, how does the self-cleavage read?
A: 1.2

Q: With A2G G54A as the variant, how does the self-cleavage read?
A: 0.27

Q: With A2U U47A as the variant, how does the self-cleavage read?
A: 0.85

Q: For A2G U73C, which self-cleavage is on record?
A: 0.81

Q: For A2G A30U, which self-cleavage is on record?
A: 0.85

Q: With U1C A77C as the variant, how does the self-cleavage read?
A: 1.02

Q: For A2U U12A, which self-cleavage is on record?
A: 0.31

Q: Which self-cleavage does the source give for A2G G21C here?
A: 1.04

Q: For U1A U132A, which self-cleavage is on record?
A: 1.35

Q: With U1C G105A as the variant, how does the self-cleavage read?
A: 0.12

Q: Which self-cleavage does the source give for A2C A107G here?
A: 1.15

Q: For C3U U45C, which self-cleavage is on record?
A: 0.8

Q: Which self-cleavage does the source give for C3U U45A here?
A: 0.93

Q: Which self-cleavage does the source give for C3U A67G here?
A: 0

Q: With C3U U12G as the variant, how does the self-cleavage read?
A: 1.13

Q: Which self-cleavage does the source give for C3U U12C here?
A: 0.57

Q: With A2G A69G as the variant, how does the self-cleavage read?
A: 0.32

Q: With A2G A69U as the variant, how does the self-cleavage read?
A: 0.15

Q: With A2G U26G as the variant, how does the self-cleavage read?
A: 0.21

Q: For C3A U13C, which self-cleavage is on record?
A: 1.15

Q: With C3A U96C as the variant, how does the self-cleavage read?
A: 0.2

Q: Which self-cleavage does the source give for A2G U52A here?
A: 1.11

Q: For C3U U20G, which self-cleavage is on record?
A: 0.53

Q: For C3U U20A, which self-cleavage is on record?
A: 0.83

Q: With A2G A6G as the variant, how does the self-cleavage read?
A: 0.68

Q: For U1C U100A, which self-cleavage is on record?
A: 0.69

Q: Which self-cleavage does the source give for C3A A65G here?
A: 0.29

Q: Which self-cleavage does the source give for C3A A129G here?
A: 0.88

Q: Which self-cleavage does the source give for U1C U85C here?
A: 0.2

Q: For C3U A24U, which self-cleavage is on record?
A: 1.15

Q: Which self-cleavage does the source give for C3U U96C here?
A: 0

Q: Which self-cleavage does the source give for A2G U14C here?
A: 0.93

Q: Which self-cleavage does the source give for U1A A2G here?
A: 1.2

Q: For U1C A24U, which self-cleavage is on record?
A: 1.2

Q: With C3U U52C as the variant, how does the self-cleavage read?
A: 1.31

Q: Which self-cleavage does the source give for U1A A65G here?
A: 0.07

Q: For C3U G8C, which self-cleavage is on record?
A: 0.53

Q: For U1C C51U, which self-cleavage is on record?
A: 0.71

Q: With C3A U115C as the variant, how does the self-cleavage read?
A: 1.22

Q: For A2U U46C, which self-cleavage is on record?
A: 1.76

Q: Which self-cleavage does the source give for A2G C90U here?
A: 0.15

Q: For A2C A121G, which self-cleavage is on record?
A: 0.95

Q: Which self-cleavage does the source give for C3G A69U here?
A: 0.11

Q: With A2G U5A as the variant, how does the self-cleavage read?
A: 0.42

Q: Which self-cleavage does the source give for U1C A64G here?
A: 0.2

Q: Which self-cleavage does the source give for U1C A64U here?
A: 0.29

Q: For U1C U46A, which self-cleavage is on record?
A: 0.43

Q: Which self-cleavage does the source give for U1C U46C here?
A: 1.11

Q: Which self-cleavage does the source give for C3U G82U here?
A: 0.88

Q: With C3A A31G as the variant, how does the self-cleavage read?
A: 0.87

Q: Which self-cleavage does the source give for A2U U85G here?
A: 0.14

Q: Which self-cleavage does the source give for A2G U109C here?
A: 1.39

Q: With U1C G83U as the variant, how does the self-cleavage read?
A: 0.25

Q: Which self-cleavage does the source give for U1A A117G here?
A: 1.37

Q: For A2G G137A, which self-cleavage is on record?
A: 0.61

Q: With A2G U119A as the variant, how does the self-cleavage read?
A: 0.96

Q: Which self-cleavage does the source give for A2G U119C here?
A: 1.32

Q: Which self-cleavage does the source give for A2U U9C here?
A: 0.7

Q: Which self-cleavage does the source give for A2U U9A here?
A: 0.86

Q: With A2C A65U as the variant, how does the self-cleavage read?
A: 0.17

Q: Which self-cleavage does the source give for U1G U13G here?
A: 1.14

Q: For U1A A22U, which self-cleavage is on record?
A: 0.41

Q: With A2G U45A as the variant, how does the self-cleavage read?
A: 0.63

Q: Which self-cleavage does the source give for C3G U81C here?
A: 0.75

Q: Which self-cleavage does the source give for U1C G32U here?
A: 0.21

Q: For U1C U73G, which self-cleavage is on record?
A: 1.53

Q: With U1C U73C as the variant, how does the self-cleavage read?
A: 1.04

Q: Which self-cleavage does the source give for U1A U62G here?
A: 0.36

Q: Which self-cleavage does the source give for U1C U96A here?
A: 0.09

Q: For U1C U96C, which self-cleavage is on record?
A: 0.12

Q: With A2G A92C as the variant, how does the self-cleavage read?
A: 0.13

Q: Which self-cleavage does the source give for A2G A92G here?
A: 0

Q: For U1C G144A, which self-cleavage is on record?
A: 0.72

Q: With C3A A121U as the variant, how does the self-cleavage read?
A: 0.58

Q: With U1C U13A as the variant, how does the self-cleavage read?
A: 0.69

Q: Which self-cleavage does the source give for U1C U13C here?
A: 0.62

Q: For U1A A121G, which self-cleavage is on record?
A: 1.73

Q: Which self-cleavage does the source give for A2C A141G here?
A: 0.9

Q: For U1G U46G, which self-cleavage is on record?
A: 0.33

Q: Which self-cleavage does the source give for A2U A142C here?
A: 1.09

Q: With C3U A64G as the variant, how does the self-cleavage read?
A: 0.21

Q: Which self-cleavage does the source give for U1C A92G here?
A: 0.14

Q: For U1A U29C, which self-cleavage is on record?
A: 0.84

Q: With A2C U39A as the variant, how does the self-cleavage read?
A: 1.3

Q: Which self-cleavage does the source give for U1A U87A here?
A: 0.13

Q: For C3U C118U, which self-cleavage is on record?
A: 1.25

Q: With A2G C76U as the variant, how does the self-cleavage read?
A: 1.17

Q: For U1C A31U, which self-cleavage is on record?
A: 0.61

Q: For A2G U81C, which self-cleavage is on record?
A: 1.14

Q: For A2C U62C, which self-cleavage is on record?
A: 0.11

Q: Which self-cleavage does the source give for U1A A69G here?
A: 1.2

Q: Which self-cleavage does the source give for U1C G36A here?
A: 1.06

Q: With U1C U26G as the variant, how does the self-cleavage read?
A: 0.72

Q: For U1C U26C, which self-cleavage is on record?
A: 0.64

Q: Which self-cleavage does the source give for U1A U39C here?
A: 1.2

Q: With C3G A31U as the variant, how does the self-cleavage read?
A: 0.98

Q: For A2C C17G, which self-cleavage is on record?
A: 1.03

Q: With A2G U85A as the variant, how does the self-cleavage read?
A: 0.25

Q: With U1C G106A as the variant, how does the self-cleavage read?
A: 0.73

Q: For A2U A129U, which self-cleavage is on record?
A: 0.75

Q: With U1A G72A as the variant, how does the self-cleavage read?
A: 1.55

Q: For A2G U39A, which self-cleavage is on record?
A: 0.89

Q: Which self-cleavage does the source give for A2G G55U here?
A: 0.49

Q: Which self-cleavage does the source give for A2G G55A here?
A: 0.2

Q: Which self-cleavage does the source give for U1A A30C here?
A: 1.44

Q: Which self-cleavage does the source give for C3U G127A here?
A: 0.89

Q: For U1A U119C, which self-cleavage is on record?
A: 1.73

Q: With U1C U134C as the variant, how does the self-cleavage read?
A: 0.38

Q: For A2G C19U, which self-cleavage is on record?
A: 0.56

Q: For A2G G105A, which self-cleavage is on record?
A: 1.27

Q: For A2G G105U, which self-cleavage is on record?
A: 1.3

Q: With C3U U62G as the variant, how does the self-cleavage read?
A: 0.07

Q: With C3U U62A as the variant, how does the self-cleavage read?
A: 0.2

Q: With A2G C71U as the variant, how does the self-cleavage read?
A: 0.7

Q: Which self-cleavage does the source give for C3U A50G here?
A: 0.33

Q: For U1C G34U, which self-cleavage is on record?
A: 0.68

Q: For U1C A79U, which self-cleavage is on record?
A: 2.16

Q: Which self-cleavage does the source give for U1G U12C here?
A: 0.64

Q: For C3A G72A, which self-cleavage is on record?
A: 0.38

Q: For U1A A136G, which self-cleavage is on record?
A: 1.71

Q: Which self-cleavage does the source give for U1A G54A here?
A: 1.05

Q: Which self-cleavage does the source give for U1A U115A here?
A: 1.1

Q: With U1A U115C as the variant, how does the self-cleavage read?
A: 1.3
